From patent US20230242586A1 (University of California, published 2023)
Bridge positions count the residues as written; N and C are the ends. Square brackets hold non-standard residues; d marks the D form.

Target: T1, biotinylated K-Ras(G12D)·GppNHp (His-Avi-TEV-KRAS (G12D)) (human, biotin on the Avi tag (co-expressed BirA))
T1 construct: Loaded with GppNHp; the protocol for the biotinylated proteins tells of no tag cleavage; Used in the TR-FRET assay
Experiment: TR-FRET Ras-Raf interaction assay: biotinylated K-Ras(G12D)·GppNHp with GST-Raf1-RBD, peptide titrated (competition)

B1: KD17 (peptide)
peptide: {CH2CO}-[dY]NYPYRPLELGWYCG-NH2
modifications: thioether N-14
notes: Chemically synthesized linker-free thioether macrocycle; in the mRNA display selection the same peptide stood as a peptide-mRNA/cDNA fusion
binding result: binds

B2: KD1 (peptide)
peptide: {CH2CO}-[dY]IIVTEKFIWVHHCG-NH2
modifications: thioether N-14
notes: as for B1
binding result: binds
